The values below come from article PMC2955838.

For test [1], the target named is vascular endothelial growth factor (VEGF) dimer (UniProt P15692). Briefly: split reporter.
The target in another test is Flt-1 (Homo sapiens) (UniProt P17948). Conditions: cited from earlier work.

A value given as a limit tells only on which side of the number the result lay.

Sequence of Flt-1 (Homo sapiens) (P17948 27-1338): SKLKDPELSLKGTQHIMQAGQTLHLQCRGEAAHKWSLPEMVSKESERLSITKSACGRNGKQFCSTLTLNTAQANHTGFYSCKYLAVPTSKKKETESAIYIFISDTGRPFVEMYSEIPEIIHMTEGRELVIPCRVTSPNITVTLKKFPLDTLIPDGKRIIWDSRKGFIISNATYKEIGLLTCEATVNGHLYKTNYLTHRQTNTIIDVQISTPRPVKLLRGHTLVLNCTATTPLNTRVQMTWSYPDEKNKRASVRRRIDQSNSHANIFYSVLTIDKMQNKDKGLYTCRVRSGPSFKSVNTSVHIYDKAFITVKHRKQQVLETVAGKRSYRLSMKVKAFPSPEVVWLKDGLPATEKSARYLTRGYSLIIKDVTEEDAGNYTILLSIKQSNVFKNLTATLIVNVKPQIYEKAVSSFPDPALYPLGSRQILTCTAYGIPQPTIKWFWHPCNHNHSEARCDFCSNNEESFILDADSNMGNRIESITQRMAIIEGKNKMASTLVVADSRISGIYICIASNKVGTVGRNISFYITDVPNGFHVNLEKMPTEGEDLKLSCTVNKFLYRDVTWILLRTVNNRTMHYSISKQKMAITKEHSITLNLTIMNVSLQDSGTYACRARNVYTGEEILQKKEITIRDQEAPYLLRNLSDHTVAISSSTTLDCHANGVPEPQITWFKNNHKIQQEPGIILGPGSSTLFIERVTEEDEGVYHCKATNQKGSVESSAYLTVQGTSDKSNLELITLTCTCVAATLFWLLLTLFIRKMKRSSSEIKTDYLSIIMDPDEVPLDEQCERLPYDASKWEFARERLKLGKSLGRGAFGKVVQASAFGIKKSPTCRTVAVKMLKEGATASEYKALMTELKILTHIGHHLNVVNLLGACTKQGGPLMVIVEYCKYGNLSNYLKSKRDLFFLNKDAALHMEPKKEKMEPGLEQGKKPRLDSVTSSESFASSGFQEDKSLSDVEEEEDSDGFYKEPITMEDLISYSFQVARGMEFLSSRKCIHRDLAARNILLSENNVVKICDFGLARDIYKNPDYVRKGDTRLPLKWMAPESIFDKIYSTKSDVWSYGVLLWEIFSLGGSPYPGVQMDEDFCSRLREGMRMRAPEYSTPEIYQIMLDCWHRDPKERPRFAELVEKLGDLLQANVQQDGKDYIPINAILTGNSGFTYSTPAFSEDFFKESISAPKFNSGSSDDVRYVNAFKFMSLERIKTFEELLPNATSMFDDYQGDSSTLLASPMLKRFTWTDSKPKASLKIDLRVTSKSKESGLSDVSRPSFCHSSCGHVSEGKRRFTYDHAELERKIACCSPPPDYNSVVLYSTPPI
Sequence of Flt-1 domain 2 fused to the C-terminal half of firefly luciferase (domain or fragment) (P17948 27-1338): as above
Sequence of Flt-1 domain 2 fused to the N-terminal half of firefly luciferase (domain or fragment) (P17948 27-1338): as above
Sequence of VEGF (P15692 whole entry): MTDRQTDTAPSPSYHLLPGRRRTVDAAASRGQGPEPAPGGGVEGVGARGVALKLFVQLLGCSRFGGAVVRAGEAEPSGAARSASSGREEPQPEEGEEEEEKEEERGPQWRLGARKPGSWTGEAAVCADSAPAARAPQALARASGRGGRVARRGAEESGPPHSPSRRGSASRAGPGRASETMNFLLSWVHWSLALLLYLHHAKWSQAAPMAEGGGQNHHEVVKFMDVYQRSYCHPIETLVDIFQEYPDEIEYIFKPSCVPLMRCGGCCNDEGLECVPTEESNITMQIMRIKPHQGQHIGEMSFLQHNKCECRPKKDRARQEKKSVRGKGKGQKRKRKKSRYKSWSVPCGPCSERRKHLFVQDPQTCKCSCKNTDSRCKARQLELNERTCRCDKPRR

“Flt-1 domain 2 fused to the N-terminal half of firefly luciferase (domain or fragment)”: the fold increase in luminescence in test [1] was above 13 fold.

For the substance “Flt-1 domain 2 fused to the C-terminal half of firefly luciferase (domain or fragment)”, the fold increase in luminescence in test [1] is above 13 fold.

Take VEGF (from UniProt P15692): the Kd with Flt-1 (Homo sapiens) was 1.4 nM.
